Reference: the supplement of paper PMC10567573

B1: RSPH3 (parent)
chain: FIPAKTGKDVATQILEGELFDFDL
B2: SAT2 (parent)
chain: LTEAEGWHFFCFQGEATRKLAGK

Variants of: B1
Experiment: protein stability index of a GFP-peptide fusion (GPS, HEK-293T) (PSI 1-6); higher = more stable
Conditions: c terminus: a fixed tail appended
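Note: lentivirally expressed fusions sorted by FACS into six bins by GFP to DsRed ratio, PSI derived from sequencing read proportions per bin multiplied by bin number.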

Protein stability index of substitutions, site by site:
F1: S 4.66, Y 1.9, D 4.77, T 4.34, R 4.15, G 4.84, M 3.93, Q 4.69, L 3.56, P 4.33, I 3.89, W 2.66, E 5.01, A 4.14, K 4.24, V 3.54, N 4.98, H 4.32, C 3.55
P3: D 2.63, C 1.72, A 2.27
I2: L 3.02, R 3.72, H 2.02, P 3.04, V 2.26, S 2.84, Y 2.96, E 4.16, M 3.26, W 2.3, C 1.55, F 2.86, Q 3.04, N 2.83, K 3.86, A 1.79, G 3.73, D 4.39, T 2.85

Variants of: B2
Experiment: as above
Conditions: c terminus: native

Protein stability index: each site, then its substitutions
E3: C 1.89, S 1.75, T 2.11, G 1.78, Q 1.82, A 1.79, I 3.97, W 1.37, F 1.64, K 1.25, Y 2.18, D 2.49, L 1.58, R 1.43
Q13: P 2.94, V 1.9, A 2.14, H 1.56, E 2.89, D 3.14, R 1.93, L 1.67, M 1.07, T 1.35, G 1.61, Y 2.66
R18: M 1.71, P 2.58, N 2.59, V 1.5, A 2.09, H 2.3, K 2.8, D 3.15, Y 2.21, T 2.03, G 2.07
A21: W 2.34, I 3.52, T 2.71, F 1.77, D 2.73, K 2.5, E 2.25, Q 3.17, M 1.91, H 3.24, R 1.71, P 1.99
F12: A 3.56, I 2.55, Y 2.48, D 4.53, W 2.35, L 2.48, N 3.84, R 2.87, E 3.33, T 3.88, Q 4.04, S 3.73, P 3.85
W7: Q 4.29, T 4.08, F 2.22, C 3.87, R 3.72, S 4.22, G 3.63, M 3.5, D 4.63, P 4.43, L 3.12
T17: D 2.79, I 1.35, H 1.77, C 1.8, G 2.15, L 2.04, M 2.46, S 1.48, V 2.21, N 2.53, Y 2.01, Q 2.63
G6: Q 2.6, I 2.49, D 3.48, K 2.15, V 2.15, N 2.56, E 3.1, R 3.03, S 2.27, A 1.58, P 2.78, H 2.14, F 1.79, Y 1.61, T 2.03
A4: Q 2.36, K 2.61, L 2.14, F 1.31, R 2.17, H 3, D 2.37, P 3.18, V 1.64, T 2.9, M 1.66, W 2.27, E 3.14, Y 1.56
G14: Q 1.96, W 2.8, I 4.25, Y 3.67, P 1.83, V 2.33, K 2.23, N 2.76, T 2.1, M 1.76, H 1.9, C 1.19
K19: Y 2.11, L 2.93, D 2.76, F 1.94, W 2, A 2.35, C 2.41, N 2.93, P 2.1, G 2.25, H 2.58, T 2.05
L1: H 1.48, E 3.73, V 2.22, C 2.48, G 4.09, R 2.09, S 3.02, K 2.81, I 1.79, M 2.34, N 3.57, Q 3.47, D 3.43
F10: Y 1.92, W 1.94, K 3.77, Q 3.61, T 3.99, L 2.68, I 2.42, G 4.09, A 3.48, E 4.18, P 4.44, R 3.28, D 4.69
E5: Q 2.16, M 4.97, H 1.85, C 1.26, N 1.73, W 2.44, I 3.25, Y 1.97, V 1.36, P 1.86, F 1.79, S 2.17, K 1.18, L 1.29
K23: C 2.15, T 2.33, M 1.01, D 2.06, L 1.86, Q 2.81, P 2.41, H 1.49, I 2.17, N 2.85
H8: D 3.44, C 1.78, R 1.54, Q 2.15, T 3.27, E 3.41, N 3.91, K 3.24, P 2.97, F 1.9, G 3.25
L20: M 2.91, N 3.41, H 2.64, G 3.47, I 2.34, Q 3.29, V 1.98, S 2.94, D 2.99, A 2.36, K 3.3, T 3.52, R 3.66, E 3.6
A16: Q 2.58, M 2.1, N 2.67, L 3.02, C 2.46, G 2.38, E 2.79, W 1.08, D 3.16, S 2.12, Y 2.03, P 2.33
F9: T 3.64, D 4.19, I 2.23, Y 2.69, N 3.52, P 4.17, M 2.51, Q 3.63, S 3.56, C 3.12, G 3.69
G22: H 2.48, C 1.07, N 2.67, P 2.47, V 3.23, I 1.91, F 1.8, M 1.6, W 2.17, A 1.5, E 2.54, R 3.52, L 1.81, S 1.8, Y 2.39, D 2.64
E15: G 2.09, P 1.97, N 1.86, L 3.25, W 1.77, A 1.59, M 1.57, H 2.13, S 1.74, Y 2.69, C 2.15, T 2.72, K 3.63
T2: N 2.75, Q 2.48, A 1.38, K 2.14, D 2.97, E 3.48, M 2.71, F 1.8, I 3.08, W 1.11, H 2.32, C 1.99, P 2.12, S 2.34
C11: K 3.5, E 3.27, D 3.45, S 3.68, Y 2.12, L 2.42, A 2.09, Q 3.46, W 1.57, N 3.04, G 3.13, I 1.66, V 2.37, T 2.94
